# From patent publication US20240043859A1, “HERBICIDE-RESISTANT PROTEIN, AND GENE AND USE THEREOF” (QINGDAO KINGAGROOT CHEMICAL COMPOUND CO., LTD., priority 2020, published 2024)
# Entries after “also recorded” stand apart in the source; their conditions may differ.
# Key:
# [1] = Chromogenic reaction of degrading herbicides in bacteria: triclopyr; assay type: cell-based, Escherichia coli; conditions: recombinant E. coli expressing the gene
# [2] = system: maize B104; assay: Herbicide-resistance capacity testing of transgenic maize (spray); assay type: in vivo; conditions: 2,4-D 4.48 kg/ha foliage spray, 14 days / 15 days after spraying
# Text: 1. Vector construction: the overexpression vector was altered from pCambia3300, containing a Bar resistance gene that can be used as a selection marker for bialaphos (glufosinate). The AAD-like gene, QYD42, SEQ ID NO. 83, was linked to the pCambia3300 at the BamH I restriction site by seamless cloning to construct the transgenic vector pQY2329, of which the expression cassette consisted of a maize ubiquitin-1 promoter, the AAD gene and a Nos terminator, as shown in FIG. 7-1.
# 2. Genetic transformation of maizes: Maize transformation was carried out by the Agrobacterium-mediated immature embryo transformation method (Jones T, Lowe K, Hoerster G, et al. Maize Transformation Using the Morphogenic Genes Baby Boom and Wuschel2. Methods Mol Biol. 2019; 1864:81-93. Doi: 10.1007/978-1-4939-8778-8 6). The Agrobacterium (EHA105) comprising the pQY2329 overexpression vector was inoculated into YEP liquid medium (containing 25 mg/L Rifampicin and 50 mg/L Kanamycin), and shaking-cultured a t 28° C., 220 rmp/min overnight until the OD600 was about 1.0-1.5, then centrifuged at 6000 rmp/min for 10 min to collect the cells into a 50 ml centrifuge tube (sterilized). After discarding the supernatant, the cells were resuspended using MS infect culture medium (containing 68.5 g/L sucrose, 36 g/L glucose, pH 5.8) to OD550=0.8. […]
# [3] = system: Arabidopsis thaliana; assay: Herbicide resistance of transgenic Arabidopsis thaliana seedlings on plate medium (root growth); assay type: in vivo; conditions: plate medium with 2,4-D (0.3 μmol)
molecule,measurement,setting,value
"QYD42: AAD-like enzyme, SEQ ID NO. 83; expressed from vectors pQY2309 (Arabidopsis), pQY2329 (maize), pQY2330 (soybean) (protein, Synthetic polypeptide, QYD42, D42) MQITPIADATFGATVTGLRLATLDDAGFARLHAAWLQHALLVFPGQFLTNAEQIGFAKRFGPIERIGGGDIVAISNVKADGTVRQHSPAEWDDMMKVIVGNMAWHADSTYMPVMAQGAVFSAEVVPPTGGRTCFADMRAAYDALDDATRALVHQRSARHSLVYSQSKLGHVQQAGSAYVGYGMDTTATPLRPLVKRHPETGRLSLLIGRHAHAIPGLEEAESERFLEDLVAWACQPPRVVAHHWTAGDVVLWDNRCLLHRAEPWDFTLPRVMWHSRLAGHPETEAAPLV",Chromogenic reaction of degrading herbicides in bacteria: Triclopyr,[1],Yes
same,Chromogenic reaction of degrading herbicides in bacteria: Triclopyr,[1]; listed as D42,slight degradation
same,"Resistance of T1 transgenic maize to 2,4-D (spray)",[2],grew normally without any growth inhibition; also recorded: no apparent deformity
same,"2,4-D resistance of T1 generation transgenic seedlings (seminal root growth)",[3],"showing tolerance to 2,4-D"
